Reference: IntAct's records for PubMed 20308429

Target: vinc_mouse Vcl (UniProt Q64727)
Sequence (Q64727 whole entry): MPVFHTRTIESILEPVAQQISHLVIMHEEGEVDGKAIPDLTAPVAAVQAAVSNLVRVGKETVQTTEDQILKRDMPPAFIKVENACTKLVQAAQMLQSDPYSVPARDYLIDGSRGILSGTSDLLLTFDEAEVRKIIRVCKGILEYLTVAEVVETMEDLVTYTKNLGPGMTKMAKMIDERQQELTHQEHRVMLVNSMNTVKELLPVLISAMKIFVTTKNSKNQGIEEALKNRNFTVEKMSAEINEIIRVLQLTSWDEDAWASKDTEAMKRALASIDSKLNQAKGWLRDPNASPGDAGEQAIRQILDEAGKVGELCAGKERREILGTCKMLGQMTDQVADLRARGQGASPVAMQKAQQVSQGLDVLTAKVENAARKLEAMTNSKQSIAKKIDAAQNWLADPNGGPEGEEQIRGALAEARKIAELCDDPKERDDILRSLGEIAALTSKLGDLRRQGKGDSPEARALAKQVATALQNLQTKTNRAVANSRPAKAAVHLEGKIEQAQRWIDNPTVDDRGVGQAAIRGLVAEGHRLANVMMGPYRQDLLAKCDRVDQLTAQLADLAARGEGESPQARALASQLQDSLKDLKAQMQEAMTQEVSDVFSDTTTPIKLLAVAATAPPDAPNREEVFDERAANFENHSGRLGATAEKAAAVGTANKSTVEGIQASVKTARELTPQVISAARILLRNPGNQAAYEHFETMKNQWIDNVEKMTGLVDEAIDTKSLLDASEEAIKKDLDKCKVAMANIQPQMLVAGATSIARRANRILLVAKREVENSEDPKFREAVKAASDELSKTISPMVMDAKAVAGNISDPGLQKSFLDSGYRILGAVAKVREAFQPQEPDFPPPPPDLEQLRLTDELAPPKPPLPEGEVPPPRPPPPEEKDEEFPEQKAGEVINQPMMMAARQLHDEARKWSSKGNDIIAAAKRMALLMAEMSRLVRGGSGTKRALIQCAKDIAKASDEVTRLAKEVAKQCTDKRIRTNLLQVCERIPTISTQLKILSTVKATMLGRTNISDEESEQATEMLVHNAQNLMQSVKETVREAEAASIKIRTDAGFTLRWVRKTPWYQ

Chain of Paxillin (Gallus gallus (Chicken)), P49024 Y31E;Y118E (P49024 whole entry Y31E/Y118E): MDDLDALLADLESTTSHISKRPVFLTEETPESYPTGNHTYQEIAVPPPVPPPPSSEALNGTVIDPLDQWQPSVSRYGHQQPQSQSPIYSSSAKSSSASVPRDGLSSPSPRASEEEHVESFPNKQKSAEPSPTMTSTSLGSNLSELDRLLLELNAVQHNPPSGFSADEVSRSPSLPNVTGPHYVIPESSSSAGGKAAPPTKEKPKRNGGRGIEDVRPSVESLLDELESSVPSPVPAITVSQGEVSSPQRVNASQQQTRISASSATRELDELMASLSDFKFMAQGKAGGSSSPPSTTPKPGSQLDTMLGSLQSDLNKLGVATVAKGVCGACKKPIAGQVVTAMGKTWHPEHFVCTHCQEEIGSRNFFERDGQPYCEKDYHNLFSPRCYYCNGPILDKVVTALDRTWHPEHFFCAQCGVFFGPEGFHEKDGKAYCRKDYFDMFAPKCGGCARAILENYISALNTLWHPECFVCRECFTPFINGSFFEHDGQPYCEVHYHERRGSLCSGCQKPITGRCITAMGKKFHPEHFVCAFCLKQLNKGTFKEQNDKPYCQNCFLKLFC
Chain of Paxillin (Gallus gallus (Chicken)), P49024 Y31F;Y118F (P49024 whole entry Y31F/Y118F): as the sequence (P49024 whole entry Y31E/Y118E) above, with E31F, E118F counted along it

Row | effect of a mutation on the interaction | Substance
1 | increasing interaction | Paxillin (Gallus gallus (Chicken)), P49024 Y31E;Y118E
2 | decreasing interaction | Paxillin (Gallus gallus (Chicken)), P49024 Y31F;Y118F
